Assay results reported in patent EP2966085A1.

target: CD20 (human) (UniProt P11836); assay: cell-based or functional assay
UniProt P11836, sequence (P11836 whole entry): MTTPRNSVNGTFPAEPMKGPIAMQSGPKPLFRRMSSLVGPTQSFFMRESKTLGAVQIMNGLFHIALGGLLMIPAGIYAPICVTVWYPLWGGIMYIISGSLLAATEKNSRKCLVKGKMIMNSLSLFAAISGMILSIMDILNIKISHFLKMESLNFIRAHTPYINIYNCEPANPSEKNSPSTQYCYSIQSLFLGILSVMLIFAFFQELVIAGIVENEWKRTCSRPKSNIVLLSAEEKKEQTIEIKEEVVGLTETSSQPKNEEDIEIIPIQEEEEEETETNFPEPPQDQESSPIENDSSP

In order of rising Mean normalised apoptosis % (Ramos cells), with cross-linking mAb:
1. mAb1 IgG1 (equivalent to rituximab), unmodified IgG1 control (antibody)  278%
2. mAb1 IgG1 mutant H224P (antibody)  322%
3. mAb1 IgG1 mutant G137E-G138S (antibody)  332%
4. mAb1 IgG1 mutant C220G (antibody)  359%

In order of falling Mean normalised apoptosis % (Ramos cells), without cross-linking mAb:
1. mAb1 IgG1 mutant C220G (antibody)  106%
2. mAb1 IgG1 mutant H224P (antibody)  106%
3. mAb1 IgG1 mutant G137E-G138S (antibody)  78%
